{"source": "patent US20230287143A1", "about": "(published 2023)", "binders": {"B1": {"name": "PR004268, PD-L1×4-1BB bispecific binding protein with the VH-IgG structure (structure 4) (bispecific antibody)", "light": "DIQMTQSPSTLSASVGDRVTVTCRASQSIYIWLAWYQQKPGKAPNLLIYKASSLETGVPSRFSGSGSGTEFTLTISSLQPDDFATYYCQQYYGSSRTFGQGTKVEIKRTVAAPSVFIFPPSDEQLKSGTASVVCLLNNFYPREAKVQWKVDNALQSGNSQESVTEQDSKDSTYSLSSTLTLSKADYEKHKVYACEVTHQGLSSPVTKSFNRGEC", "heavy": "not shown"}}, "molecular_target": "human PD-L1 (human, UniProt Q9NZQ7 19-290)", "sequence (Q9NZQ7 19-290)": "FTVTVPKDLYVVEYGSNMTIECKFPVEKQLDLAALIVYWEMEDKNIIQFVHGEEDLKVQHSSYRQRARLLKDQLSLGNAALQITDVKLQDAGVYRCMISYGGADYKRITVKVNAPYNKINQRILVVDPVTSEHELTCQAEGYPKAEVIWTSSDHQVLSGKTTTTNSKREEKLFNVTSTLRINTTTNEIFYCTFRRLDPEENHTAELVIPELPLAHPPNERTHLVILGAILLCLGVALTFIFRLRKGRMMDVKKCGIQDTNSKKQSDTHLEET", "assay": "FACS", "data": [{"binder": "B1", "values": [{"measurement": "EC50", "value": 1.2, "unit": "nM"}]}]}
